Measurements published in US20230218753A1.

What was measured:
[1] = target: activated human complement C1s (UniProt P09871); experiment: direct binding
[2] = target: activated human complement C1s (UniProt P09871); experiment: competition binding with 50 pM biotinylated TNT005

Sequence of activated human complement C1s (P09871 16-688): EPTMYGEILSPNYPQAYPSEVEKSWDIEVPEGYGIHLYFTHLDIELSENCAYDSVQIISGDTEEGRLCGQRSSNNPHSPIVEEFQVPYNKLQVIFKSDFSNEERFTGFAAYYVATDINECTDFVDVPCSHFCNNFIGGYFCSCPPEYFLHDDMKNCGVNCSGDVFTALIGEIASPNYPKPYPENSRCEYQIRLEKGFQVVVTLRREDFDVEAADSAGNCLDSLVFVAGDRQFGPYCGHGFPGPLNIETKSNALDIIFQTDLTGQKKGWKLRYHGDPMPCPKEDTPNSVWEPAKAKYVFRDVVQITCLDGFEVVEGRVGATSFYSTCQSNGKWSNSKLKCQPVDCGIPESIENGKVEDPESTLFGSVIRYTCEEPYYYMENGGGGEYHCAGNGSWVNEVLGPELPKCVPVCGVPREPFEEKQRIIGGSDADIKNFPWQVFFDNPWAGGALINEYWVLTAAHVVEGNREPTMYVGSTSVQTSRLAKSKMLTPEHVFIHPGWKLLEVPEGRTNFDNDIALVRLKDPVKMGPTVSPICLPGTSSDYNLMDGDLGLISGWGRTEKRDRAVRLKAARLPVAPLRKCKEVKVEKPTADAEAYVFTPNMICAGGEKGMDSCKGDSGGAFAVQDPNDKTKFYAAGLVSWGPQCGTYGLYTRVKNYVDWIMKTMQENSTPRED

EC50 [1]: 0.0559 nM | IC50 [2]: 0.0395 nM
Substance: TNT005
